Reference: patent US20190360025A1

What was measured:
[1] = molecular target: tumor necrosis factor alpha (TNF-α), R&D Systems 210-TA-005 (UniProt P01375); experiment: c-PLA 1X probes, buffer; TNF-α 5.00E-07 M
[2] = molecular target: tumor necrosis factor alpha (TNF-α), R&D Systems 210-TA-005 (UniProt P01375); experiment: SPR (Biacore T200), biotinylated antibody on CAP chip, 1:1 fit
[3] = molecular target: vascular endothelial growth factor (VEGF), R&D Systems 293-VE-010 (human) (UniProt P15692); experiment: c-PLA, buffer; VEGF 1.00E-14 M
Chain of UniProt P15692 (P15692 other isoform, or with tags, fused parts or gaps limits assumed): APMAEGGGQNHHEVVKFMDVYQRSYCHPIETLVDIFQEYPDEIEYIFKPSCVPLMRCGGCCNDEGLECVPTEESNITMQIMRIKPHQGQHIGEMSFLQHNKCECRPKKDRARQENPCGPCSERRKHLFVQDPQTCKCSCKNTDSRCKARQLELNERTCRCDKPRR

[4] = molecular target: vascular endothelial growth factor (VEGF), R&D Systems 293-VE-010 (human) (UniProt P15692); experiment: t-PLA, buffer; VEGF 1.00E-09 M
[5] = molecular target: vascular endothelial growth factor (VEGF), R&D Systems 293-VE-010 (human) (UniProt P15692); experiment: t-PLA, buffer; VEGF 1.00E-12 M
[6] = molecular target: vascular endothelial growth factor (VEGF), R&D Systems 293-VE-010 (human) (UniProt P15692); experiment: c-PLA with preamplification; VEGF 1.00E-13 M
[7] = molecular target: vascular endothelial growth factor (VEGF), R&D Systems 293-VE-010 (human) (UniProt P15692); experiment: t-PLA with preamplification; VEGF 1.00E-09 M
[8] = molecular target: vascular endothelial growth factor (VEGF), R&D Systems 293-VE-010 (human) (UniProt P15692); experiment: SPR, isoaffinity graph
[9] = molecular target: vascular endothelial growth factor (VEGF), R&D Systems 293-VE-010 (human) (UniProt P15692); experiment: SPR (Biacore T200), biotinylated antibody on CAP chip, 1:1 fit

Chain of UniProt P01375 (P01375 77-233 limits assumed): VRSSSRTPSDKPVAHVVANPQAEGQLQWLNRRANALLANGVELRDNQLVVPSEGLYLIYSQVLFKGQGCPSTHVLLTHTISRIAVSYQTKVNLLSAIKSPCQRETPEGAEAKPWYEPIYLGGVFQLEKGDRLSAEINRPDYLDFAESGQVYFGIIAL

Substance | Counts [1] | SBR [1] | Kd [2] | Counts [3] | SBR [3] | Counts [4] | SBR [4] | Counts [5] | SBR [5] | Counts [6] | SBR [6] | Counts [7] | SBR [7] | Kd [8] | Kd [9]
affinity-purified polyclonal anti-TNF-α antibody (R&D Systems AF-210-NA) | 33000 | 2070 | 280 pM |  |  |  |  |  |  |  |  |  |  |  | 
affinity-purified polyclonal anti-VEGF antibody (R&D Systems AF-293-NA) |  |  |  | 203 | 6.8 | 3.98e+09 | 11500 | 3.69e+06 | 11 | 95500 | 1.6 | 1.19e+09 | 6740 | < 5 pM | 3.6 pM
